Data taken from patent US12104181B2, “Compositions and methods for treating viral infections targeting TRIM7” (THE BOARD OF REGENTS OF THE UNIVERSITY OF TEXAS SYSTEM, priority 2021, dated 2024).

Tested on: coxsackievirus B3 (CVB3-GFP)
Format: cell-based
Settings: HeLa cells, replicate R1; for Percent Infected R1: GFP-positive cells within RFP-positive gate

Molecule | Percent Infected R1 | Z score R1
RNFT1: human RING type E3 ligase expressed from lentiviral vector (protein, UniProt Q5M7Z0 1-435, looked up, lentiviral expression, human RING type E3 ligase expressed from lentiviral vector) E3 ubiquitin-protein ligase …: MPLFLLSLPTPPSASGHERRQRPEAKTSGSEKKYLRAMQANRSQLHSPPGTGSSEDASTPQCVHTRLTGEGSCPHSGDVHIQINSIPKECAENASSRNIRSGVHSCAHGCVHSRLRGHSHSEARLTDDTAAESGDHGSSSFSEFRYLFKWLQKSLPYILILSVKLVMQHITGISLGIGLLTTFMYANKSIVNQVFLRERSSKIQCAWLLVFLAGSSVLLYYTFHSQSLYYSLIFLNPTLDHLSFWEVFWIVGITDFILKFFFMGLKCLILLVPSFIMPFKSKGYWYMLLEELCQYYRTFVPIPVWFRYLISYGEFGNVTRWSLGILLALLYLILKLLEFFGHLRTFRQVLRIFFTQPSYGVAASKRQCSDVDDICSICQAEFQKPILLICQHIFCEECMTLWFNREKTCPLCRTVISDHINKWKDGATSSHLQIY | 95.2% | 0.08
ZNRF1: human RING type E3 ligase expressed from lentiviral vector (protein, UniProt Q8ND25 2-227, looked up, lentiviral expression, human RING type E3 ligase expressed from lentiviral vector) E3 ubiquitin-protein ligase …: GGKQSTAARSRGPFPGVSTDDSAVPPPGGAPHFGHYRTGGGAMGLRSRSVSSVAGMGMDPSTAGGVPFGLYTPASRGTGDSERAPGGGGSASDSTYAHGNGYQETGGGHHRDGMLYLGSRASLADALPLHIAPRWFSSHSGFKCPICSKSVASDEMEMHFIMCLSKPRLSYNDDVLTKDAGECVICLEELLQGDTIARLPCLCIYHKSCIDSWFEVNRSCPEHPAD | 95.8% | 0.09
MARCH5: human RING type E3 ligase expressed from lentiviral vector (protein, UniProt Q9NX47 1-278, looked up) E3 ubiquitin-protein ligase …: MPDQALQQMLDRSCWVCFATDEDDRTAEWVRPCRCRGSTKWVHQACLQRWVDEKQRGNSTARVACPQCNAEYLIVFPKLGPVVYVLDLADRLISKACPFAAAGIMVGSIYWTAVTYGAVTVMQVVGHKEGLDVMERADPLFLLIGLPTIPVMLILGKMIRWEDYVLRLWRKYSNKLQILNSIFPGIGCPVPRIPAEANPLADHVSATRILCGALVFPTIATIVGKLMFSSVNSNLQRTILGGIAFVAIKGAFKVYFKQQQYLRQAHRKILNYPEQEEA | 91.5% | 0.04
RNF4: human RING type E3 ligase expressed from lentiviral vector (protein, UniProt P78317 1-190, looked up, lentiviral expression, human RING type E3 ligase expressed from lentiviral vector) E3 ubiquitin-protein ligase …: MSTRKRRGGAINSRQAQKRTREATSTPEISLEAEPIELVETAGDEIVDLTCESLEPVVVDLTHNDSVVIVDERRRPRRNARRLPQDHADSCVVSSDDEELSRDRDVYVTTHTPRNARDEGATGLRPSGTVSCPICMDGYSEIVQNGRLIVSTECGHVFCSQCLRDSLKNANTCPTCRKKINHKRYHPIYI | 93.3% | 0.06
RNF130: human RING type E3 ligase expressed from lentiviral vector (protein, UniProt Q86XS8 28-419, looked up) E3 ubiquitin-protein ligase …: DNASQEYYTALINVTVQEPGRGAPLTFRIDRGRYGLDSPKAEVRGQVLAPLPLHGVADHLGCDPQTRFFVPPNIKQWIALLQRGNCTFKEKISRAAFHNAVAVVIYNNKSKEEPVTMTHPGTGDIIAVMITELRGKDILSYLEKNISVQMTIAVGTRMPPKNFSRGSLVFVSISFIVLMIISSAWLIFYFIQKIRYTNARDRNQRRLGDAAKKAISKLTTRTVKKGDKETDPDFDHCAVCIESYKQNDVVRILPCKHVFHKSCVDPWLSEHCTCPMCKLNILKALGIVPNLPCTDNVAFDMERLTRTQAVNRRSALGDLAGDNSLGLEPLRTSGISPLPQDGELTPRTGEINIAVTKEWFIIASFGLLSALTLCYMIIRATASLNANEVEWF | 91.4% | 0.04
MUL1: human RING type E3 ligase expressed from lentiviral vector (protein, UniProt Q969V5 1-352, looked up, lentiviral expression, human RING type E3 ligase expressed from lentiviral vector) Mitochondrial ubiquitin …: MESGGRPSLCQFILLGTTSVVTAALYSVYRQKARVSQELKGAKKVHLGEDLKSILSEAPGKCVPYAVIEGAVRSVKETLNSQFVENCKGVIQRLTLQEHKMVWNRTTHLWNDCSKIIHQRTNTVPFDLVPHEDGVDVAVRVLKPLDSVDLGLETVYEKFHPSIQSFTDVIGHYISGERPKGIQETEEMLKVGATLTGVGELVLDNNSVRLQPPKQGMQYYLSSQDFDSLLQRQESSVRLWKVLALVFGFATCATLFFILRKQYLQRQERLRLKQMQEEFQEHEAQLLSRAKPEDRESLKSACVVCLSSFKSCVFLECGHVCSCTECYRALPEPKKCPICRQAITRVIPLYNS | 80.1% | −0.11
PCGF6: human RING type E3 ligase expressed from lentiviral vector (protein, UniProt Q9BYE7 1-350, looked up) Polycomb group RING finger …: MEGVAVVTAGSVGAAKTEGAAALPPPPPVSPPALTPAPAAGEEGPAPLSETGAPGCSGSRPPELEPERSLGRFRGRFEDEDEELEEEEELEEEEEEEEEDMSHFSLRLEGGRQDSEDEEERLINLSELTPYILCSICKGYLIDATTITECLHTFCKSCIVRHFYYSNRCPKCNIVVHQTQPLYNIRLDRQLQDIVYKLVINLEEREKKQMHDFYKERGLEVPKPAVPQPVPSSKGRSKKVLESVFRIPPELDMSLLLEFIGANEGTGHFKPLEKKFVRVSGEATIGHVEKFLRRKMGLDPACQVDIICGDHLLEQYQTLREIRRAIGDAAMQDGLLVLHYGLVVSPLKIT | 94.6% | 0.08
MARCH2: human RING type E3 ligase expressed from lentiviral vector (protein, UniProt Q9P0N8 1-246, looked up) E3 ubiquitin-protein ligase …: MTTGDCCHLPGSLCDCSGSPAFSKVVEATGLGPPQYVAQVTSRDGRLLSTVIRALDTPSDGPFCRICHEGANGECLLSPCGCTGTLGAVHKSCLEKWLSSSNTSYCELCHTEFAVEKRPRPLTEWLKDPGPRTEKRTLCCDMVCFLFITPLAAISGWLCLRGAQDHLRLHSQLEAVGLIALTIALFTIYVLWTLVSFRYHCQLYSEWRKTNQKVRLKIREADSPEGPQHSPLAAGLLKKVAEETPV | 92.4% | 0.05
RNF150: human RING type E3 ligase expressed from lentiviral vector (protein, UniProt Q9ULK6 35-438, looked up) RING finger protein 150: EKEEWYTAFVNITYAEPAPDPGAGAAGGGGAELHTEKTECGRYGEHSPKQDARGEVVMASSAHDRLACDPNTKFAAPTRGKNWIALIPKGNCTYRDKIRNAFLQNASAVVIFNVGSNTNETITMPHAGVEDIVAIMIPEPKGKEIVSLLERNITVTMYITIGTRNLQKYVSRTSVVFVSISFIVLMIISLAWLVFYYIQRFRYANARDRNQRRLGDAAKKAISKLQIRTIKKGDKETESDFDNCAVCIEGYKPNDVVRILPCRHLFHKSCVDPWLLDHRTCPMCKMNILKALGIPPNADCMDDLPTDFEGSLGGPPTNQITGASDTTVNESSVTLDPAVRTVGALQVVQDTDPIPQEGDVIFTTNSEQEPAVSSDSDISLIMAMEVGLSDVELSTDQDCEEVKS | 91.1% | 0.03
RFPL2: human RING type E3 ligase expressed from lentiviral vector (protein, UniProt O75678 1-378, looked up, lentiviral expression, human RING type E3 ligase expressed from lentiviral vector) Ret finger protein-like 2: MEVAELGFPETAVSQSRICLCAVLCGHWDFADMMVIRSLSLIRLEGVEGRDPVGGGNLTNKRPSCAPSPQDLSAQWKQLEDRGASSRRVDMAALFQEASSCPVCSDYLEKPMSLECGCAVCLKCINSLQKEPHGEDLLCCCSSMVSRKNKIRRNRQLERLASHIKELEPKLKKILQMNPRMRKFQVDMTLDANTANNFLLISDDLRSVRSGRIRQNRQDLAERFDVSVCILGSPRFTCGRHCWEVDVGTSTEWDLGVCRESVHRKGRIQLTTELGFWTVSLRDGGRLSATTVPLTFLFVDRKLQRVGIFLDMGMQNVSFFDAESGSHVYTFRSVSAEEPLRPFLAPSVPPNGDQGVLSICPLMNSGTTDAPVRPGEAK | 93.8% | 0.07
RNF144A: human RING type E3 ligase expressed from lentiviral vector (protein, UniProt P50876 1-292, looked up) E3 ubiquitin-protein ligase …: MTTTRYRPTWDLALDPLVSCKLCLGEYPVEQMTTIAQCQCIFCTLCLKQYVELLIKEGLETAISCPDAACPKQGHLQENEIECMVAAEIMQRYKKLQFEREVLFDPCRTWCPASTCQAVCQLQDVGLQTPQPVQCKACRMEFCSTCKASWHPGQGCPETMPITFLPGETSAAFKMEEDDAPIKRCPKCKVYIERDEGCAQMMCKNCKHAFCWYCLESLDDDFLLIHYDKGPCRNKLGHSRASVIWHRTQVVGIFAGFGLLLLVASPFLLLATPFVLCCKCKCSKGDDDPLPT | 97.7% | 0.12
RNF220: human RING type E3 ligase expressed from lentiviral vector (protein, UniProt Q5VTB9 1-566, looked up) E3 ubiquitin-protein ligase …: MDLHRAAFKMENSSYLPNPLASPALMVLASTAEASRDASIPCQQPRPFGVPVSVDKDVHIPFTNGSYTFASMYHRQGGVPGTFANRDFPPSLLHLHPQFAPPNLDCTPISMLNHSGVGAFRPFASTEDRESYQSAFTPAKRLKNCHDTESPHLRFSDADGKEYDFGTQLPSSSPGSLKVDDTGKKIFAVSGLISDREASSSPEDRNDRCKKKAAALFDSQAPICPICQVLLRPSELQEHMEQELEQLAQLPSSKNSLLKDAMAPGTPKSLLLSASIKREGESPTASPHSSATDDLHHSDRYQTFLRVRANRQTRLNARIGKMKRRKQDEGQREGSCMAEDDAVDIEHENNNRFEEYEWCGQKRIRATTLLEGGFRGSGFIMCSGKENPDSDADLDVDGDDTLEYGKPQYTEADVIPCTGEEPGEAKEREALRGAVLNGGPPSTRITPEFSKWASDEMPSTSNGESSKQEAMQKTCKNSDIEKITEDSAVTTFEALKARVRELERQLSRGDRYKCLICMDSYSMPLTSIQCWHVHCEECWLRTLGAKKLCPQCNTITAPGDLRRIYL | 96.6% | 0.1
